The data set concerns the molecule itself. Nature of the data set: NMR (preliminary experiments); highly purified P protein at 25°C.

B1: Thermotoga maritima RNase P protein (natural protein)
chain: TESFTRRERLRLRRDFLLIFKEGKSLQNEYFVVLFRKNGLDYSRLGIVVKRKFGKATRRNKLKRWVREIFRRNKGVIPKGFDIVVIPRKKLSEEFERVDFWTVREKLLNLLKRIEG
modifications: 15N, 13C-labeled
notes: RNase P protein component (rnpA gene) of Thermotoga maritima; numbering corresponds to UniProtKB Q9X1H4; Exists as monomer and dimer in equilibrium in solution; the preparation follows Zeng et al., 2018; also called T. maritima RNase P protein; source: E. coli BL21 Gold, M9 minimal media, purified (thrombin-treated lysate, denaturation-renaturation, 15S cation exchange); not shown: GST, …
One may read the stoichiometry N as the number of molecules, sites or subunits per partner or assembly. For the protein B1, the “stoichiometry N” value came out at 2.

Values taken from publication PMC8447495, “Dissecting Monomer-Dimer Equilibrium of an RNase P Protein Provides Insight Into the Synergistic Flexibility of 5’ Leader Pre-tRNA Recognition” (Frontiers in Molecular Biosciences, 2021).
